Measured values reported in publication PMC12805100 (2025).

B1: 3xFLAG-WT hTRPA1 [human] / CaM-agarose resin (calmodulin coupled to agarose) [not stated] (parent complex)
chain 1: MKRSLRKMWRPGEKKEPQGVVYEDVPDDTEDFKESLKVVFEGSAYGLQNFNKQKKLKRCDDMDTFFLHYAAAEGQIELMEKITRDSSLEVLHEMDDYGNTPLHCAVEKNQIESVKFLLSRGANPNLRNFNMMAPLHIAVQGMNNEVMKVLLEHRTIDVNLEGENGNTAVIIACTTNNSEALQILLKKGAKPCKSNKWGCFPIHQAAFSGSKECMEIILRFGEEHGYSRQLHINFMNNGKATPLHLAVQNGDLEMIKMCLDNGAQIDPVEKGRCTAIHFAATQGATEIVKLMISSYSGSVDIVNTTDGCHETMLHRASLFDHHELADYLISVGADINKIDSEGRSPLILATASASWNIVNLLLSKGAQVDIKDNFGRNFLHLTVQQPYGLKNLRPEFMQMQQIKELVMDEDNDGCTPLHYACRQGGPGSVNNLLGFNVSIHSKSKDKKSPLHFAASYGRINTCQRLLQDISDTRLLNEGDLHGMTPLHLAAKNGHDKVVQLLLKKGALFLSDHNGWTALHHASMGGYTQTMKVILDTNLKCTDRLDEDGNTALHFAAREGHAKAVALLLSHNADIVLNKQQASFLHLALHNKRKEVVLTIIRSKRWDECLKIFSHNSPGNKCPITEMIEYLPECMKVLLDFCMLHSTEDKSCRDYYIEYNFKYLQCPLEFTKKTPTQDVIYEPLTALNAMVQNNRIELLNHPVCKEYLLMKWLAYGFRAHMMNLGSYCLGLIPMTILVVNIKPGMAFNSTGIINETSDHSEILDTTNSYLIKTCMILVFLSSIFGYCKEAGQIFQQKRNYFMDISNVLEWIIYTTGIIFVLPLFVEIPAHLQWQCGAIAVYFYWMNFLLYLQRFENCGIFIVMLEVILKTLLRSTVVFIFLLLAFGLSFYILLNLQDPFSSPLLSIIQTFSMMLGDINYRESFLEPYLRNELAHPVLSFAQLVSFTIFVPIVLMNLLIGLAVGDIAEVQKHASLKRIAMQVELHTSLEKKLPLWFLRKVDQKSTIVYPNKPRSGGMLFHIFCFLFCTGEIRQEIPNADKSLEMEILKQKYRLKDLTFLLEKQHELIKLIIQKMEIISETEDDDSHCSFQDRFKKEQMEQRNSRWNTVLRAVKAKTHHLEP
chain 2: not shown

Variants of: B1
Test: CaM-agarose pulldown, quantified immunoblot; 2 mM Ca2+; lysates of HEK293T cells; n = 3; read off a plot

response | Variant
~0.36 normalized pulldown (relative to WT hTRPA1 0.1 μM Ca2+ average) | chain 1 W1103A
~0.05 normalized pulldown (relative to WT hTRPA1 0.1 μM Ca2+ average) | chain 1 K989S, chain 1 R996S, chain 1 K997S, chain 1 K1001S, chain 1 W1103A
